Test results published in US12115223B2, “Conjugate of biotin-modified dimer and phthalocyanine dye” (THE UNIVERSITY OF TOKYO, priority 2021, dated 2024).

T1: Recombinant Human CEACAM-5/CD66e Protein (Homo sapiens, UniProt P06731)
T1 construct: purchased R & D SYSTEMS
T1 sequence (P06731 35-676): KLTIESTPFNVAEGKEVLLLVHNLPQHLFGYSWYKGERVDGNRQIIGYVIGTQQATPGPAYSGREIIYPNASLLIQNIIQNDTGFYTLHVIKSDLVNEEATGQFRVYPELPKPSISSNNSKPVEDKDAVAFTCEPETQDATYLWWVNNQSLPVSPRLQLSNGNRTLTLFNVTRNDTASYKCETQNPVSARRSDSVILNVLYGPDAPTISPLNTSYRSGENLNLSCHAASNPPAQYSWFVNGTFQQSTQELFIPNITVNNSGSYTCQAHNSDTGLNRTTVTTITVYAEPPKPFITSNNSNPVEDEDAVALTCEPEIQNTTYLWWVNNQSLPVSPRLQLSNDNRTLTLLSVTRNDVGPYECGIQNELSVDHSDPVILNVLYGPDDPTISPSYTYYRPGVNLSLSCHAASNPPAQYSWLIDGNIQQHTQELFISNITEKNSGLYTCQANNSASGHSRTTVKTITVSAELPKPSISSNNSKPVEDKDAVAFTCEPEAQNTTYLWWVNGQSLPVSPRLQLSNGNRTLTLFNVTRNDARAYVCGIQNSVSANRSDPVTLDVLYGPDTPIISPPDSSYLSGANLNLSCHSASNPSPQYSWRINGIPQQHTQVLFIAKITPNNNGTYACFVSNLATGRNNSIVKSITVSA


Key:
[1] = target: T1, Recombinant Human CEACAM-5/CD66e Protein; experiment: SPR (Biacore T200) affinity of CEA-V2122 for the antigen CEACAM5; assay type: binding; conditions: bivalent analysis
Procedure: The affinity of CEA-V2122 for the antigen CEACAM5 was evaluated using a surface plasmon resonance (SPR) measuring device, Biacore T200 (GE Healthcare Life Sciences). Specifically, Recombinant Human CEACAM-5/CD66e Protein, CF (R & D SYSTEMS) was immobilized on Sensor Chip CMS (GE Healthcare Life Sciences) using an amine-coupling kit (GE Healthcare Life Sciences). The fmal amount of the ligand immobilized was 279 RU. Moreover, with regard to the purified CEA-V2122, two-fold serial dilutions from 1E-08 M to 6.25E-10 M were prepared as analytes. Regarding interaction analysis, data were obtained by single-cycle kinetics analysis. Using Biacore T200 Evaluation Software, version 2.0, the obtained data were subjected to curve fitting in a bivalent analysis mode, and the following values were obtained: ka1=3.208E+5, and kd1=3.461E-7.

[2] = system: CEACAM5-positive MKN-45 cells and CEACAM5-negative DLD1 cells; experiment: Cell staining of CEACAM5-expressing cell line using FITC-labeled CEA-V2122; assay type: cell-based, human; conditions: 20 nM CEA-V2122-FITC
Procedure: In order to stain a CEACAM5 expression-positive cancer cell line, FITC labeling was carried out on the cell line, using 100 μg of a purified CEA-V2122 protein. Specifically, labeling was carried out using Fluorescein Labeling Kit-NH2 (DOJINDO LABORATORIES) in accordance with the dosage and administration described in the operating manual included with the kit, and the obtained product was defined to be CEA-V2122-FITC. Specific staining of the CEACAM5 expression-positive cancer cell line is as follows. That is, CEACAM5-positive human stomach cancer-derived MKN-45 cells and CEACAM5-negative human colon cancer-derived DLD1 cells were each seeded on a CELLSTAR, μClear, 96-well plate (Greiner) to a cell density of 2.0×10^4 cells/well, and thereafter, the cells were cultured overnight. Subsequently, a culture solution containing 20 nM CEA-V2122-FITC and 1 μM Hoechist was added to the 96-well plate to a concentration of 100 μL/well, and the obtained mixture was then reacted at 4° C. for 30 minutes. Thereafter, each image was taken using In Cell Analyzer 6000 (GE Healthcare Life Sciences).

KD=kd1/ka1 [1] | Molecule | localisation of CEACAM5 after binding (time-series images of MKN45 cells, FIG. 6) [2] | recognition of CEACAM5 on cells (stained cell images, FIG. 5) ([2]; 4° C., 30 minutes)
1.078E-12 | CEA-V2122: scFv-type anti-CEACAM5 antibody bound with mutant streptavidin V2122 via an amino acid linker (SEQ ID NO: 3) (protein) QVKLEQSGAEVVKPGASVKLSCKASGFNIKDSYMHWLRQGPGQRLEWIGWIDPENGDTEYAPKFQGKATFTTDTSANTAYLGLSSLRPEDTAVYYCNEGTPTGPYYFDYWGQGTLVTVSSGGGGSGGGGSGGGGSENVLTQSPSSMSVSVGDRVNIACSASSSVPYMHWLQQKPGKSPKLLIYLTSNLASGVPSRFSGSGSGTDYSLTISSVQPEDAATYYCQQRSSYPLTFGGGTKLEIKGGGGSGGGGAEAGITGTWSDQLGDTFIVTAGADGALTGTYENAVGGAESRYVLTGRYDSAPATDGSGTALGWTVAWKNNSKNAHSATTWSGQYVGGADAKINTQWLLTSGTTNANAWKSTLVGHDTFTKVKPSAASHHHHHH |  | 
 | CEA-V2122-FITC: purified CEA-V2122 protein labeled using Fluorescein Labeling Kit-NH2 (conjugate) QVKLEQSGAEVVKPGASVKLSCKASGFNIKDSYMHWLRQGPGQRLEWIGWIDPENGDTEYAPKFQGKATFTTDTSANTAYLGLSSLRPEDTAVYYCNEGTPTGPYYFDYWGQGTLVTVSSGGGGSGGGGSGGGGSENVLTQSPSSMSVSVGDRVNIACSASSSVPYMHWLQQKPGKSPKLLIYLTSNLASGVPSRFSGSGSGTDYSLTISSVQPEDAATYYCQQRSSYPLTFGGGTKLEIKGGGGSGGGGAEAGITGTWSDQLGDTFIVTAGADGALTGTYENAVGGAESRYVLTGRYDSAPATDGSGTALGWTVAWKNNSKNAHSATTWSGQYVGGADAKINTQWLLTSGTTNANAWKSTLVGHDTFTKVKPSAASHHHHHH | the CEACAM5 stays on the surface of the cell membrane | specifically recognizes CEACAM5 on the surface of the cell membrane
